Target: recombinant influenza HA3-protein (from H3N2, Wyoming, March 2003, Sino Biological Inc.) (influenza H3N2, Wyoming, March 2003)
Assay: SPR imaging (IBIS MX96), antibody captured on anti-human-IgG chip, HA3 injected at 1 µg/ml, global 1:1 fit

Row | Binder | Kd | koff | kon
1 | AT10-004 mutant C (antibody, V domains shown) VH: RASQSVSRFLA VL: RASQSVSRFLA | 60 pM | 1e-06 s⁻¹ | 17000 M⁻¹ s⁻¹
2 | AT10-004 mutant B (antibody, V domains shown) VH: RASQSVSRYLA VL: RASQSVSRYLA | 50 pM | 1e-06 s⁻¹ | 19000 M⁻¹ s⁻¹
